Positions count from the first letter of the chain named.
T1: cell-surface GPC1 on GPC1-expressing tumor cells (2B9 KLM, H8, T3M4) (UniProt P35052 24-530, limits assumed)
T1 sequence (looked up): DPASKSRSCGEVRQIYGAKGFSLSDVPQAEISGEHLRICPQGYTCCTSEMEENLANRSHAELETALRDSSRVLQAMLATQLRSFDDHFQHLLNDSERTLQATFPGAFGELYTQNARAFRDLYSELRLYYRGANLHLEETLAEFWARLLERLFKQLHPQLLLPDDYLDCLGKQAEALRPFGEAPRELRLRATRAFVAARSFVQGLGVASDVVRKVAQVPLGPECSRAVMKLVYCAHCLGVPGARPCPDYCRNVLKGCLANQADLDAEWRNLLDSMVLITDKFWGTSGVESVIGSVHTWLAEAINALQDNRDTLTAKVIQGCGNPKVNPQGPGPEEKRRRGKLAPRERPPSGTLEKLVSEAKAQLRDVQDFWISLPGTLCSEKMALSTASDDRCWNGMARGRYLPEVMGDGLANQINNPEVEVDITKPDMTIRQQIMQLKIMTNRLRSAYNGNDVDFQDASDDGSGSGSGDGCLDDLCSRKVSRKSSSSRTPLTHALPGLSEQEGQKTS

T2: human glypican-1 (GPC1) (human, UniProt P35052 24-530)
T2 construct: also called human GPC1; HuGPC1
T2 sequence (looked up): T1 sequence (looked up)

T3: human GPC2 (human, UniProt Q8N158 24-554, limits assumed)
T3 sequence (looked up): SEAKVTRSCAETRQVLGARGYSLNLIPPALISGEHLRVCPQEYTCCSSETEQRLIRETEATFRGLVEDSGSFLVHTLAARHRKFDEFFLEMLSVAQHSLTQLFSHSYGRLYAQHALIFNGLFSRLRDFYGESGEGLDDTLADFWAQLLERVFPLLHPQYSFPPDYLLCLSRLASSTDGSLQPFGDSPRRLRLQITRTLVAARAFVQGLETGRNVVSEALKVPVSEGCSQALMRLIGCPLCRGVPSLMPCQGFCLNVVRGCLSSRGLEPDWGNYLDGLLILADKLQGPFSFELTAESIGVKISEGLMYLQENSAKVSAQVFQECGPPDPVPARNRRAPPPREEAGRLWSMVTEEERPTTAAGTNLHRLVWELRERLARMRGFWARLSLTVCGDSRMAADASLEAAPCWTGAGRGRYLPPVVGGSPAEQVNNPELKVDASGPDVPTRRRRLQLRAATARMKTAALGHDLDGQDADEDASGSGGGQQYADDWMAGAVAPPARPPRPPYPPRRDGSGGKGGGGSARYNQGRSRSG

T4: human GPC5 (printed as 'GPCS') (human, UniProt P78333 25-554, limits assumed)
T4 construct: The text prints 'GPCS'
T4 sequence (looked up): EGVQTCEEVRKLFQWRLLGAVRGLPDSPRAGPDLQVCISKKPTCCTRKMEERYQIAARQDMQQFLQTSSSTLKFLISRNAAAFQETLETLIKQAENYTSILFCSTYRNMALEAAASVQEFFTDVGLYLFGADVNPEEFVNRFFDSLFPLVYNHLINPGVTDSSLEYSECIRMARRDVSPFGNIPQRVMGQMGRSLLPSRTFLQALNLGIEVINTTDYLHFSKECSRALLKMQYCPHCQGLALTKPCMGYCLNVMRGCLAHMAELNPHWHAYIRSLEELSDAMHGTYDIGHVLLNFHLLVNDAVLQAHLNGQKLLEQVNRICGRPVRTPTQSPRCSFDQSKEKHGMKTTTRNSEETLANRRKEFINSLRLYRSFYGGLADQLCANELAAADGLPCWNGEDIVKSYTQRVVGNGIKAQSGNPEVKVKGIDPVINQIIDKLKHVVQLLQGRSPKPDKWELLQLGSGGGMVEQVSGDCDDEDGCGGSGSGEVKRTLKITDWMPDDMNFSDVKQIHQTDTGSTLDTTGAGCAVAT

T5: human GPC6 (human, UniProt Q9Y625 24-529, limits assumed)
T5 sequence (looked up): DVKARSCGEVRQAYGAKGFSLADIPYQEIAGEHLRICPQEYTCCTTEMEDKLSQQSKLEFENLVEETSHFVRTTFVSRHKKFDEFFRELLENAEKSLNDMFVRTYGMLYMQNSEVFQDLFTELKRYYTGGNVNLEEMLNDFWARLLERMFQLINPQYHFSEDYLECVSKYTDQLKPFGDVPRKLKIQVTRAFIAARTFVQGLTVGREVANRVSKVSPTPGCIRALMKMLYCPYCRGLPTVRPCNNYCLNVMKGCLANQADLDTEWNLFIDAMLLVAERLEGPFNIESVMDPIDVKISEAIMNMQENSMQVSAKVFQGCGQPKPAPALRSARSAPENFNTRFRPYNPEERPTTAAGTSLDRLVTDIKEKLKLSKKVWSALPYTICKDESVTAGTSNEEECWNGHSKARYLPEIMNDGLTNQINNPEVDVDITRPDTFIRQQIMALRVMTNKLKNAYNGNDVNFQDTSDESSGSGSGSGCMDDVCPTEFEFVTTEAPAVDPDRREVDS

T6: mouse GPC1 (mouse, UniProt Q9QZF2 24-529, limits assumed)
T6 construct: also called MsGPC1
T6 sequence (looked up): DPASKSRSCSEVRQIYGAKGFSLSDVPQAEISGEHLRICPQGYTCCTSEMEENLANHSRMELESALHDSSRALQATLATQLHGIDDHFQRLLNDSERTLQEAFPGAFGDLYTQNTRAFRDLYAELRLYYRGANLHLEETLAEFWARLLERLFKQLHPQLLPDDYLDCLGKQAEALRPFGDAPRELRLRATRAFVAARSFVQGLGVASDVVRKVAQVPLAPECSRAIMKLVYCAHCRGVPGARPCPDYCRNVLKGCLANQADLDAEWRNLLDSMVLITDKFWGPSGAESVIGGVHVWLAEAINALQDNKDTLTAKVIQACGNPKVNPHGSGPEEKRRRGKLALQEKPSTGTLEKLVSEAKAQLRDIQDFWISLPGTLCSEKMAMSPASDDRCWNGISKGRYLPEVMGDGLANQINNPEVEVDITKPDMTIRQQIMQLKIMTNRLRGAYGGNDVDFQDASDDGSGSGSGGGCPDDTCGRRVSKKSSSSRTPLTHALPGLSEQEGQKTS

B1: D4-LR immunotoxin (other)
chain: MQVQLVESGGGLVQPGGSLRLSCVASGYSYSIGYMAWFRQAPGKERAWVASRYTGDGGAVFDDAVKGRFTTSQESAGNTFDLQMDSLKPEDTAMYYCAAKGPGFGRWEYWGRGTQVTVSSKLKASGGRHRQPRGWEQLGGGGGSPTGAEFLGDGGDVSFSTRGTQNWTVERLLQAHRQLEERGYVFVGYHGTFLEAAQSIVFGGVRARSQDLDAIWRGFYIAGDPALAYGYAQDQEPDARGRIRNGALLRVYVPRSSLPGFYRTSLTLAAPEAAGEVERLIGHPLPLRLDAITGPEEEGGRLETILGWPLAERTVVIPSAIPTDPRNVGGDLDPSSIPDKEQAISALPDYASQPGKPPREDLK
B2: D4-AAA-D4-LR immunotoxin (other)
chain: MQVQLVESGGGLVQPGGSLRLSCVASGYSYSIGYMAWFRQAPGKERAWVASRYTGDGGAVFDDAVKGRFTTSQESAGNTFDLQMDSLKPEDTAMYYCAAKGPGFGRWEYWGRGTQVTVSSAAAQVQLVESGGGLVQPGGSLRLSCVASGYSYSIGYMAWFRQAPGKERAWVASRYTGDGGAVFDDAVKGRFTTSQESAGNTFDLQMDSLKPEDTAMYYCAAKGPGFGRWEYWGRGTQVTVSSKLKASGGRHRQPRGWEQLGGGGGSPTGAEFLGDGGDVSFSTRGTQNWTVERLLQAHRQLEERGYVFVGYHGTFLEAAQSIVFGGVRARSQDLDAIWRGFYIAGDPALAYGYAQDQEPDARGRIRNGALLRVYVPRSSLPGFYRTSLTLAAPEAAGEVERLIGHPLPLRLDAITGPEEEGGRLETILGWPLAERTVVIPSAIPTDPRNVGGDLDPSSIPDKEQAISALPDYASQPGKPPREDLK
notes: also called bivalent D4 immunotoxin; D4-D4-LR
B3: D4-GGS-D4-LR immunotoxin (other)
chain: B2 chain with A121G, A122G, A123S
notes: as for B2
B4: mouse monoclonal antibody HM2 (antibody, V domains shown)
VH: EVQLQQSGAELVRPGASVKLSCTASGFNIKDDYMHWVKQRPEQGLEWIGWIDPENGDTEYASKFQGKATITADTSSNTAYLQLSSLTSEDTAVYYCTRSSVGYWGQGTTLTVSS
VL: DVVMTQTPLSLPVSLGDQASISCRSSQSLVHSNGNTYLHWYLQKPGQSPKLLIYKVSNRFSGVPDRFSGSGSGTYFTLKISRVEAEDLGVYFCSQRTHVPYTFGGGTKLEIK
notes: Mouse hybridoma antibody; also called HM2 antibody; HM2 anti-GPC1 monoclonal antibody
B5: HM2-LR immunotoxin (other)
chain: MEVQLQQSGAELVRPGASVKLSCTASGFNIKDDYMHWVKQRPEQGLEWIGWIDPENGDTEYASKFQGKATITADTSSNTAYLQLSSLTSEDTAVYYCTRSSVGYWGQGTTLTVSSGGGGSGGGGSGGGGSDVVMTQTPLSLPVSLGDQASISCRSSQSLVHSNGNTYLHWYLQKPGQSPKLLIYKVSNRFSGVPDRFSGSGSGTYFTLKISRVEAEDLGVYFCSQRTHVPYTFGGGTKLEIKKLKASGGRHRQPRGWEQLGGGGGSPTGAEFLGDGGDVSFSTRGTQNWTVERLLQAHRQLEERGYVFVGYHGTFLEAAQSIVFGGVRARSQDLDAIWRGFYIAGDPALAYGYAQDQEPDARGRIRNGALLRVYVPRSSLPGFYRTSLTLAAPEAAGEVERLIGHPLPLRLDAITGPEEEGGRLETILGWPLAERTVVIPSAIPTDPRNVGGDLDPSSIPDKEQAISALPDYASQPGKPPREDLK
B6: camel single-domain antibody D4 (VHH)
VHH: QVQLVESGGGLVQPGGSLRLSCVASGYSYSIGYMAWFRQAPGKERAWVASRYTGDGGAVFDDAVKGRFTTSQESAGNTFDLQMDSLKPEDTAMYYCAAKGPGFGRWEYWGRGTQVTVSS
notes: also called D4 antibody; VHH antibody D4

Assays:
[1] = target: T1, cell-surface GPC1 on GPC1-expressing …
[2] = target: T2, human glypican-1 (GPC1); assay: Octet analysis
[3] = target: T2, human glypican-1 (GPC1); assay: Octet kinetic analysis
[4] = target: T2, human glypican-1 (GPC1); assay: Octet kinetic analysis (column Kdis)
[5] = target: T2, human glypican-1 (GPC1); assay: ELISA on GPC1, OD450 against concentration
[6] = target: T2, human glypican-1 (GPC1); assay: Octet kinetic analysis; remark: listed apart in the source
[7] = target: T3, human GPC2; assay: ELISA
[8] = target: T7, human GPC3 (human, UniProt P51654 25-559, limits assumed); assay: ELISA
[9] = target: T4, human GPC5 (printed as 'GPCS'); assay: ELISA
[10] = target: T5, human GPC6; assay: ELISA
[11] = target: T2, human glypican-1 (GPC1); assay: Octet kinetic analysis; remark: listed apart in the source
[12] = target: T6, mouse GPC1; assay: monoclonal phage ELISA
[13] = target: T3, human GPC2; assay: monoclonal phage ELISA
[14] = target: T7, human GPC3; assay: monoclonal phage ELISA
[15] = target: T4, human GPC5 (printed as 'GPCS'); assay: monoclonal phage ELISA
[16] = target: T5, human GPC6; assay: monoclonal phage ELISA

T7 sequence (P51654 25-559 limits assumed): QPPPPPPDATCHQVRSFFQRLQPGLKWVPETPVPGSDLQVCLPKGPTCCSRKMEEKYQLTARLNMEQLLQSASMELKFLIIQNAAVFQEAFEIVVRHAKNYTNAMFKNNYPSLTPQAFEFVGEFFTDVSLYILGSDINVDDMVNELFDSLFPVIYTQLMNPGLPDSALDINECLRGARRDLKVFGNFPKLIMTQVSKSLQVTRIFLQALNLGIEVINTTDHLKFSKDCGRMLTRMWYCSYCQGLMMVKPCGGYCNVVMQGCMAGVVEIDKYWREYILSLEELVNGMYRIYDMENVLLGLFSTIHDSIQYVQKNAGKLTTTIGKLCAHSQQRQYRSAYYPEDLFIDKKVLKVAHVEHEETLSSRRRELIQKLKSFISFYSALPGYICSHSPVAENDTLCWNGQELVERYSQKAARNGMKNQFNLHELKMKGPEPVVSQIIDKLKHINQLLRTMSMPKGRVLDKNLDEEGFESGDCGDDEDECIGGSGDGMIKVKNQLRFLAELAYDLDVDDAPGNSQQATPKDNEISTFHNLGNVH

| Binder | EC50 [1] | Kd [2] | Kd [3] | kon [3] | koff [4] | EC50 [5] | Kd [6] | Kd [11] | further results |
| --- | --- | --- | --- | --- | --- | --- | --- | --- | --- |
| B1 | 8.1 nM | 6.3 nM | 6.25 nM | 350000 M⁻¹ s⁻¹ | 0.00218 s⁻¹ | 4.3 nM | – | – | – |
| B2 | 1.9 nM | – | – | – | – | 0.2 nM | 0.09 nM | – | – |
| B3 | 3.8 nM | – | – | – | – | 0.1 nM | 0.08 nM | – | – |
| B4 | – | – | – | – | – | – | – | 1.2 nM | binding result [7]: no binding; binding result [8]: no binding; binding result [9]: no binding; binding result [10]: no binding |
| B5 | – | 6.9 nM | 6.94 nM | 297000 M⁻¹ s⁻¹ | 0.00206 s⁻¹ | – | – | – | – |
| B6 | – | – | – | – | – | – | – | 1.3 nM | binding result [12]: binds; binding result [13]: no binding; binding result [14]: no binding; binding result [15]: no binding; binding result [16]: no binding |
